T1: human B lymphocyte-restricted differentiation antigen Bp35 (CD20) (human, UniProt P11836 1-297)
T1 construct: whole, on cells; Presented on SB cells, other CD20 positive B cell lines or acetone-fixed human tissues; also called CD20 antigen; CD20 surface antigen
T1 sequence (looked up): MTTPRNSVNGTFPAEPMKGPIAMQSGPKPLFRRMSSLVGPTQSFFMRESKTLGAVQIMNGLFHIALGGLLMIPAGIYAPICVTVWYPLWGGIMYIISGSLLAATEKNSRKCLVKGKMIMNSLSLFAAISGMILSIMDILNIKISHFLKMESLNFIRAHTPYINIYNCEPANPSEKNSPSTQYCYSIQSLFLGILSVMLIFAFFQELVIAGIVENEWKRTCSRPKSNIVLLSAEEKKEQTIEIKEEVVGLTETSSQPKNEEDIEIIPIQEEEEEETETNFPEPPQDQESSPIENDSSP

B1: chimeric anti-CD20 antibody produced by the CHO transfectoma (antibody, V domains shown)
VH: QVQLQQPGAELVKPGASVKMSCKASGYTFTSYNMHWVKQTPGRGLEWIGAIYPGNGDTSYNQKFKGKATLTADKSSSTAYMQLSSLTSEDSAVYYCARSTYYGGDWYFNVWGAGTTVTVSA
VL: QIVLSQSPAILSASPGEKVTMTCRASSSVSYIHWFQQKPGSSPKPWIYATSNLASGVPVRFSGSGSGTSYSLTISRVEAEDAATYYCQQWTSNPPTFGGGTKLEIK
notes: domain: heavy chain gamma 1 constant region (Kabat numbering amino acids 114-478); also called C2B8; CHO produced chimeric anti-CD20; not shown: human immunoglobulin light chain kappa constant region, Kabat numbering amino acids 108-214, allotype Km 3
B2: chimeric anti-CD20 antibody produced by the SP2/0 transfectoma (antibody, V domains shown)
VH: B1 VH
VL: B1 VL
notes: domain: heavy chain gamma 1 constant region (Kabat numbering amino acids 114-478); Same construct as m2, but produced in SP2/0 mouse myeloma cells; also called SP2/0 produced antibody; not shown: human immunoglobulin light chain kappa constant region, Kabat numbering amino acids 108-214, allotype Km 3

Experiments:
[1] = target: human B lymphocyte-restricted differentiation antigen Bp35 (CD20) (human) (UniProt P11836); assay: radioimmunoassay: hybridoma medium against 10 ng I-125 labeled anti-CD20 Bl on 100,000 SB cells
[2] = target: human B lymphocyte-restricted differentiation antigen Bp35 (CD20) (human) (UniProt P11836); assay: direct binding of I-125 radiolabeled antibody to CD20 positive B cells, Scatchard plot; printed as apparent affinity constant (Kap)
[3] = target: T1, human B lymphocyte-restricted …; assay: as above

Molecule	% inhibition of I-125 labeled anti-CD20 Bl binding [1] [%]	Kd [2] [nM]	Kd [3] [nM]
murine anti-CD20 monoclonal antibody 2B8	50	3.5	–
B1	–	–	5.2
B2	–	–	7.4
